# Source: patent US20220017615A1 (SHANGHAI PHARMAEXPLORER, published 2022)
# Like-named read-outs stand apart in the source and are kept apart here.
# T1: mouse CD47, on CHOK1/mCD47 cells (mouse, UniProt Q61735 19-303)
# T1 construct: whole, on cells; also called murine CD47
# T1 sequence (looked up): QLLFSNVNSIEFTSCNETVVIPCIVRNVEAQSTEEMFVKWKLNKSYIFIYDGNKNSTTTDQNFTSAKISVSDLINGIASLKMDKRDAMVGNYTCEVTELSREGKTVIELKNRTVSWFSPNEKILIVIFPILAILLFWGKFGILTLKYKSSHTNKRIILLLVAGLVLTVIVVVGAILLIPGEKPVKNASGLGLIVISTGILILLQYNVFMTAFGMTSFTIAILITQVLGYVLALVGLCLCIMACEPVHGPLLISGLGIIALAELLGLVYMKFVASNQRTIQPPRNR
# Key:
# [1] = target: T2, cynomolgus CD47, on CHOK1-cCD47 stable cell line (cynomolgus); experiment: flow cytometry (FACS) on CHOK1-cynoCD47 cells, mean fluorescence intensity
# T2 construct: whole, on cells; check before use; also called CHOK1/cynoCD47; monkey-derived CD47
# Method: (§1) The CHOK1-hCD47 stable cell lines and CHOK1-cCD47 stable cell lines were expanded to 90% confluence in a T-75 cell culture flask, the medium was exhausted, washed twice with HBSS buffer (Hanks balanced salt solution) (purchased from Invitrogen), and then treated and collected with enzyme-free cell dissociation solution (Versene solution: purchased from Life technology). The cells were washed twice with HBSS buffer. After counted, the cells were diluted with HBSS to 2×10⁶ cells per ml, added with 1% goat serum blocking solution, wherein the percentage was the mass percantage, incubated on ice for 30 minutes, and then washed twice with HBSS by centrifugation. […] The plate was washed 3 times with FACS buffer by centrifugation, added with 100 μl fixative solution [4% (v/v) Paraformaldehyde] per well to suspend the cells. 10 minutes later, it was washed twice with FACS buffer by centrifugation. The cells were suspended with 100 microliters of FACS buffer, FACS (FACS Calibur, purchased from BD) was used for detection and the results were analyzed.
# [2] = target: T3, human CD47, full length, on transfected cells (human, UniProt Q08722 19-323); experiment: flow cytometry (FACS) on CHOK1-hCD47 cells, mean fluorescence intensity
# T3 construct: whole, on cells; also called CHOK1-hCD47
# Method: as §1
# [3] = target: T1, mouse CD47, on CHOK1/mCD47 cells; experiment: flow cytometry (FACS) on CHOK1-mCD47 cells, mean fluorescence intensity
# [4] = target: T4, biotin-labeled CD47 extracellular domain protein (CD47-ECD) (UniProt Q08722 19-139, limits assumed, biotin-labeled (sites not given)); experiment: blocking ELISA: SIRPα-hFc coated, biotin-labeled CD47-ECD added with the antibody, OD450; blocked ligand SIRPα-hFc
# T4 construct: extracellular domain; also called CD47 protein
# [5] = target: T5, His-tagged CD47 recombinant protein, CD47-His (human, UniProt Q08722 19-141, limits assumed); experiment: BLI (Octet Red 96), antibody on AHC sensor, CD47-His 100 nM
# T5 construct: it is not restated for CD47-His; also called human CD47-His protein; antigen CD47-His; not shown: His tag
# [6] = target: T4, biotin-labeled CD47 extracellular …; experiment: blocking ELISA: SIRPα-hFc coated, biotin-labeled CD47-ECD added with the antibody, OD450; blocked ligand SIRPα-hFc; remark: listed apart in the source
Binder,EC50 (read off the curve) [1],EC50 (read off the curve) [2],EC50 (read off the curve) [3],IC50 (read off the curve) [4],Kd [5],koff [5],kon [5],IC50 (read off the curve) [6]
"29A03 WT (antibody, V domains shown, WT = NG site of CDR-L1 not mutated) VH: EVQLQQSGAELVKPGASVKMSCKASGYTFTNYWITWVKQRPGQGLEWIGDIYPVSGGTDYNEKFKTRATLTVDTSSSTAYMHLSSLTSEDSAVYYCARKGRGGVDYWGQGTTLTVSS VL: DILMTQTPLSLPVSLGDQASISCRSSQSIVHSNGNTYLEWYLQKPGQSPKLLIYKVSNRFSGVPDRFSGSGSGTDFTLKISRVEAEDLGVYFCSQSTHVPYTFGGGTKLEIK",~3 nM,~5 nM,~10 nM,–,–,–,–,–
"29A03 QG (antibody, V domains shown) VH: EVQLQQSGAELVKPGASVKMSCKASGYTFTNYWITWVKQRPGQGLEWIGDIYPVSGGTDYNEKFKTRATLTVDTSSSTAYMHLSSLTSEDSAVYYCARKGRGGVDYWGQGTTLTVSS VL: DILMTQTPLSLPVSLGDQASISCRSSQSIVHSQGNTYLEWYLQKPGQSPKLLIYKVSNRFSGVPDRFSGSGSGTDFTLKISRVEAEDLGVYFCSQSTHVPYTFGGGTKLEIK",~3 nM,~5 nM,~10 nM,~3 nM,–,–,–,–
"c29A03NA (antibody, V domains shown, Phage-derived clone 29A03 with the NG site of CDRL1 mutated to NA) VH: EVQLQQSGAELVKPGASVKMSCKASGYTFTNYWITWVKQRPGQGLEWIGDIYPVSGGTDYNEKFKTRATLTVDTSSSTAYMHLSSLTSEDSAVYYCARKGRGGVDYWGQGTTLTVSS VL: DILMTQTPLSLPVSLGDQASISCRSSQSIVHSNANTYLEWYLQKPGQSPKLLIYKVSNRFSGVPDRFSGSGSGTDFTLKISRVEAEDLGVYFCSQSTHVPYTFGGGTKLEIK",~3 nM,~5 nM,~10 nM,~1 nM,4.69 nM,0.00207 s⁻¹,442000 M⁻¹ s⁻¹,–
"c95E2D10 (antibody, V domains shown) VH: QIQLQQSGPELVKPGASMKISCKASGYPFTDYYIHWVKQKPGQGLEWIGWIYPGSGNNKYNEKFKGKATLTVDTSPSTVYMQLSSLTSEDTAVYFCARRAGNYFDYWGQGTTLTVSS VL: NIVMTQSPKSMSRSVGERVTLSCRASENVRTYVFWYQQKPGLSPKLLIYGASNRYIGVPDRFTGSGSATDFTLTISSVQAEDLADYHCGQSYSYPLTFGAGTKLELK",–,–,–,–,10.2 nM,0.00358 s⁻¹,350000 M⁻¹ s⁻¹,~1 nM
